Reference: patent US20250012810A1 (NORDIC BIOSCIENCE A S, published 2025)

Biological target: T1, elongated peptide GPPGPPGRLVD (human)
T1 construct: The range follows from the stated cleavage site V1709-D1710 and the peptide length
T1 peptide: GPPGPPGRLVD
Test: competitive ELISA on biotin-… coated streptavidin plates
Procedure: A competitive ELISA using the monoclonal antibody raised against C7 was performed using the following procedure:
Streptavidin-coated plates were coated with 100 μL/well of 2.5 ng/mL biotin-labeled peptide (Biotin-[…], SEQ ID NO: 10) diluted in assay buffer (50 mM TBS-BTB, 2 g/L NaCl, pH 8.0) and incubated at 20° C., 300 rpm shaking for 30 minutes. Plates were washed five times in washing buffer ([…] TRIS, 50 mM NaCl, pH 7.2). Sample or standard peptide (20 μL) was added in double determinations and followed immediately by addition of 100 μL/well of 200 ng/mL HRP-labeled monoclonal antibody diluted in assay buffer and plates were incubated at 20° C., 300 rpm shaking for 3 hours. The standard peptide was a synthetic peptide ([…], SEQ ID NO: 1) with a starting concentration of 125 ng/ml and diluted 2-fold to create an 11 points calibration curve (FIG. 1). After incubation, plates were washed five times in washing buffer. A volume of 100 μL 3,3′, 5,5′-tetramethylbenzidine (TMB) was added and incubated for 15 min at 20° C. in the dark. To stop the enzyme reaction of TMB, […] 0.1% sulphuric acid was added and the absorbance was measured at 450 nm with 650 nm as the reference using an ELISA reader. A calibration curve was plotted using a 4-parametric mathematical fit model. […] All samples were measured within the range of the assay. […]

B1: monoclonal antibody raised against the C-terminal neo-epitope amino acid sequence …-COOH (C7) (antibody, mouse IgG1, kappa, V domains shown)
VH: EVQLQQSGPELVKPGASVKISCKTSGYTFIENTMNWVKQSHGKSLEWIGGINPKIGGSIYNQKFQDKATLTVDKSSSTAYMELRSLTSDDSAVYYCARGIYDEGWHFDVWGAGTTVTVSS
VL: DIVMTQAAFSNPVTLGTSASISCRSSQSLLYSNGITYLYWYLQKPGQSPQLLIYQMSNLASGVPDRFSSSGSGTDFTLRISRVEAEDVGVYYCAQNLELPWTFGGGTKLEIKR
notes: also called monoclonal antibody raised against C7; HRP-labeled monoclonal antibody
B1: no binding.
